To fix the notation:
B1: TatC with C-terminal hexahistidine tag, wild type (TatABC system) [E. coli] / TatB [E. coli] (parent)
chain 1: MFDIGFSELLLVFIIGLVVLGPQRLPVAVKTVAGWIRALRSLATTVQNELTQELKLQEFQDSLKKVEKASLTNLTPELKASMDELRQAAESMKRSYVANDPEKASDEAHTIHNPVVKDNEAAHEGVTPAAAQTQASSPEQKPETTPEPVVKPAADAEPKTAAPSPSSSDKP
chain 2: MSVEDTQPLITHLIELRKRLLNCIIAVIVIFLCLVYFANDIYHLVSAPLIKQLPQGSTMIATDVASPFFTPIKLTFMVSLILSAPVILYQVWAFIAPALYKHERRLVVPLLVSSSLLFYIGMAFAYFVVFPLAFGFLANTAPEGVQVSTDIASYLSFVMALFMAFGVSFEVPVAIVLLCWMGITSPEDLRKKRPYVLVGAFVVGMLLTPPDVFSQTLLAIPMYCLFEIGVFFSRFYVGKGRNREEENDAEAESEKTEE
B2: TatC with C-terminal hexahistidine tag, wild type (TatABC system) [E. coli] / TatA [E. coli] (parent)
chain 1: MGGISIWQLLIIAVIVVLLFGTKKLGSIGSDLGASIKGFKKAMSDDEPKQDKTSQDADFTAKTIADKQADTNQEQAKTEDAKRHDKEQV
chain 2: B1 chain 2

The record followed here is publication PMC11178869.

In one assay the parent is B1. Briefly: affinity purification (H6-tagged TatC) with SDS-PAGE/Western-blot band quantification. As to conditions: eight replicates, read off a plot.
In the case of chain 2 L189A, the response amounted to 0.97 signal ratio. On to chain 2 I50Y, for which the response was determined as 0.86 signal ratio. The same measure, in the same setting: next, chain 2 Y154A: 0.81 signal ratio.

The variants in the next assay derive from B2. The assay is described as above. Particulars: eight replicates, read off a plot.
Regarding chain 2 L189A, the response is 0.67 signal ratio. For the variant chain 2 Y154A, the response came to 1.6 signal ratio. On the same count and under the same terms, then chain 2 I50Y, with 1.3 signal ratio.
